The text below walks through data of the nanobody polyreactivity screen of Harvey et al. (2022).

The nature of the series: yeast display, Sf9 membrane polyspecificity reagent, FACS + sequencing; frameworks hold sequencing errors. Put shortly: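 Genes from sorted yeast were amplified by colony PCR, read by MiSeq 2 × 250 sequencing and filtered on CDR length. These cells carried a synthetic nanobody library in Saccharomyces cerevisiae BJ5465 and were sorted by FACS into low and high (top ~1%) gates on anti-HA and streptavidin fluorescence. Polyreactivity is labelled according to the gate of origin.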
Turning to “QVQLVESGGGLVQAGGSLRLSCAASGSIFVYNDMGWYRPAPGKERELVAGIDWSGDRTYADSVKGRFTISRDNAKNTVYLQMNSLKPEDTAVYYCNADEWRWDEIIPYAVDYWGQGTQVTVSS”, the “polyreactivity (PSR sort gate)” value is “low polyreactivity”.
In the case of “QVQLVESGGGLVQAGGSLRLSCAASGITFSYNAMGWDRQAPGKERELVAAISSNSDSTYYADSVKGRFTISRDNAKNTVYLQMNSLKPEDTAVYYCAADTPDAPDYSGFYYWGQGTQVTVSS” it was “low polyreactivity”; in that of “QVQLVESGGGLVQAGGSLRLTCAASGSTFIRNTMGWYRQAPGKERELVAAISRSGVRTYYADSVKGRFTISRDNAKNTVYLQMNSLKPEDTAVYYCNVLRYRLWGQGTQVTVSS”, “high polyreactivity”; in that of “QVQLVESGGGLVQAGGSLRLSCAASGGIFYSNAMGWYRPAPGKERELVAAISRDGTITYYADSVKGRFTISRDNAKNTVYLQMNSLKPEDTAVYYCAADASIQSWYSIYDYWGQGTQVTVSS”, “high polyreactivity”.
The value for “QVQLVESGGGLVQAGGSLRLSCAASGSIFVVYAMGWYRQAPGKERELVAGISGRDGSTYYADSVKGRFTISRDNGKNTVYLQMNSLKPEDTAVYYSARVYWGQGTQVTVSS” was “low polyreactivity”; that for “QVQLVESGGGLVQAGGSLRLSCAATGRIFYYYTMGWYRQAPGKERELVAAISWGGVNTDYADSVKGRFTISRDNAKNTVYLQMNSLKPEDTAVYYCAAGRWSVGTYDYWGQGTQVTVSS” was “low polyreactivity”.
In the case of “QVQLVESGGGLVQAGGSLRLSCAASGYTLKWYTMGWYRQAPGKERELVATIRRGGGTYYADSVKGRFTISRDNAKNTVYLQMNSLKPEDTAVYYCNARDRRRTNLLDYWGQGTQVTVSS” it was “low polyreactivity”; in that of “QVQLVESGGGLVQAGGSLRLSCAASGFTFYLYAMGWYRQAPGKERELVASISSGGRTYYADSVKGRFTISRDNAKNTVYLQMNSLKPEDTAVYYCAVSPYSRRKYEYYYWGQGTQVTVSS”, “high polyreactivity”.
Regarding “QVQLVESGGGLVQAGGSLRLSCAASGSIFDGYAMGWYIQAPGKDRELVAAISGSGGITYYADSVKGRFTISRDNAKNTVYLPMNSLKPEDTAVYYCAADYSWYAGYGYWGQGTQVTVSS”, the “polyreactivity (PSR sort gate)” value is reported as “low polyreactivity”.
Take “QVQLVESGGALVQAGGSLRLSCAASGRTFWDYAMGWYREAPGKERELVAAITWGGGSTYYADSVKGRFTISRDNAKNTVYLQMNSLKPVDTAVYYCAAGRGRHTYNYWGQGTQVTVTS”: the “polyreactivity (PSR sort gate)” value is listed as “low polyreactivity”.
The value for “QVQLEESGGGLVQAGGSLRLSCAASGSTCPTNAIGWYRQAPRKERELVADITIRRGGTSYADSVKGRFTMSRDNAKNTVYLQMNSLKPEDTAVYYCARSKSTELKRLLYDSWGQGTQVTVSS” was “low polyreactivity”; that for “QVQLVESGGGLVQAGGSLRLSCAASGFIFWYYAMGWYRQAPGKERELVATITTGGGTNYADSVKGRFTISRDNAKNTVYLQMNSLKPEDTAVYYCNADFRWYAEDDYWGQGTQVTVSS” was “low polyreactivity”; that for “QVQLVESGGGLVQAGGSLRLSCAASGSTFLQYAMGWYRQPPGKERELVAAIRFSTGTTYYADSVKGRFTISRDNAKNTVYLQMNSLKPEDTAVYYCNAVGTYRPWFHTYGYWGQGTQVTVSS” was “high polyreactivity”.
The value for “QDQLVESGGGLVQAGGSLRLTCAASGSTFNYYAMGWYRQAPGKERELVAAISRSGGRTYYADSVKGRFTISRDNAKTTVYLQMNSLKEEDTAVYYCAAQVLTTGGEGGYWGQGTQVTVSS” was “high polyreactivity”.
As to “QVQLVESGGGLVQAGGSLRLSCAASGITFKSNAMGWYRQAPGKERELVAAISRRASSTYYADSVKGRFTISRDNAKNTVYLQMNSLKPEDTAVYYCNAVLPVYRTNMDYWGQGTQVTVST”, the “polyreactivity (PSR sort gate)” value is recorded as “high polyreactivity”.
Regarding “QVQLVESGGGLVQAGGSLRLSCASSGSTIRSYAMGWYRQAPGKERELVAVISSGDSTYYADSVKGRFTISRDNAKNTVYLQMNSLKPDDTAVYYCAADSYVLGRWYGYWGQGTQVTVSS”, the “polyreactivity (PSR sort gate)” value is given as “low polyreactivity”.
In the case of “QVQLQESGGGLVQAGGSLRPSCAASGSISDGVPMGWYRQAPGEERELVATTVLGATTNYADSVKGRFTISRGNAKYTVYLQMNSLKPEETAVYYCAAPLRYDKGFSYWGQGTQVTVSS” it was “low polyreactivity”; in that of “QVQLVDSGGGLVQAGGSLRLSCASTGSIYRYAIGWNRQSPGKERELVAAINFNGGRTYYADSVKGRFTISSDNAKNTVYLQMNSLKPEDTAVYYCAAVRSSNQGGFDYWGQGTLVTVSS”, “high polyreactivity”.
As to “QVQLVESGGGLVQAGGSLRLSCAASGSTFAYYMGWYRQAPGKERELVASISTYYADSVKGRFTISRDNAKNTVYLQMNSLKPEDTAVYYCNKAYYYVFTNYSTALAGDWGQGTQVTVSS”, the “polyreactivity (PSR sort gate)” value is on record as “low polyreactivity”.
In the case of “QVQLVESGGGLVQAGGSLRLSCAASGSIFYLYAMGWYRQAPGKERELVAAISESGSTTYYADSVKGRFTISRDNAKNTVYLQMNSLKPEDTAVYYCARLGTYTVVTYDYWGQGTQVTVSS” it was “low polyreactivity”.
The value for “QVQLVESGGGLVQAGGSLRLSCAASGMGWYRQAPGKERELVAAITSTDGSTYYADSVKGRFTISRDNAKNTVYLQMNSLTPEDTAVYYCAVEPYLWPVFSDDDYWGQGTQVTVSS” was “low polyreactivity”; that for “QVQLVESGGGLVQAGGSLRLSCAASGSIFQPYAMGWYRQAPGKEWELVAAISRGGTTYYADSVKGRFTISRDNAKNTVYLQMNSLNPEDTAVYYCAVKGYRYVTRYDYWGQGTQVTVSS” was “high polyreactivity”; that for “QVQLVESGGGLVQAGGSLRLSCAASGRIFGYYTMGWYRQAPGKEREFVASISTTGGSTYYADSVKGRFTISRDNAKNTVYLQMNSLKPEDTAVYYCNVYYWYGSRGSYALGKEYDYWGQGTQVTVSS” was “high polyreactivity”.
In the case of “QVQLVESGGGLVQAGGSLRLTCAASGRTFDQYAMGWYRQAPGKERDLVAAITSGGSTYYADSVKGRFTISRDNAKNTVYLQMNSLKPEDTAVYYCYTDSSFWGYYIAQVNERDYWGQGTQVTVSS” it was “low polyreactivity”.
For “QVQLVESGGGLVQAGGSLRLSCAASGSIFRGYGMGWYRQAPGKERELVAANNYSGGSTYYADSVKGRFTISRDNAKNTVYLQMNSLKPEDTAVYYCNKVYYRQRGEYYYWGQGTQVTVSS”, the “polyreactivity (PSR sort gate)” value is “high polyreactivity”.
As to “QVQLVESGGGLVQEGGSLRLSCAASGLIFNRYDMGWYRQAPGKVTELVAAITSRGGRTYYADSVKGRFTISLDNAKTTVYLQMNSLKPEDTAVYYCNRTPTGSSLYGMDYWGQGTQVTVSS”, the “polyreactivity (PSR sort gate)” value is listed as “high polyreactivity”.
Consider “QVQLVESGGGLVQAGGSLRLSCAASGRTLVGNAMGWYRQAPGKERELVAAISWSGGSTNYADSVKGRFTISRDNAKNTVYLQMNSLKPEDTAVYYCAASVYTYRYWDYYWGQGTQVTVSS”, for which the “polyreactivity (PSR sort gate)” value is on record as “high polyreactivity”.
As to “QVQLVESGGGLVQAGGSLRLSCAASGLTFFGNAMGWYRQAPGKERELVATISSGGGTSYADSVKGRFTISRDNAKNTVYLQMNSLKPEDTAVYYCAADIVEEFDYWGQGTQVTVSS”, the “polyreactivity (PSR sort gate)” value is on record as “low polyreactivity”.
In the case of “QVQLVESGGGLVQAGGSLRLSCAASGGIFSRYAIGWYRQAPGKEREFVAAISFSGASTYYADSVKGRFTISRDNAKNTVYLQMNSLKPEDTAVYYCAADRVWPYYQYDYWGQGTQVTVSS” it was “low polyreactivity”; in that of “QVQLVESGGGLVQAGGSLRLSCAASGSIFRYYAMGWYRQAPGKERELVAAITSGGRTNYADSVKGRFTISRDNAKNTVYLQMNSLKPEDSAVYYCNKGYNAVWRYRGDYWGQGTQVTVSS”, “high polyreactivity”.
For “QVQLVESGGGLVQAGGSLRLICAASGSIFYVNAMGWYRQEPGKERELVAGISRSGSSTYYADSVKGRFTISRDNAKNTVYLLMNSLKPEDTAVYYCNRVYQGRGWHDYWGQGTQVTVSS”, the “polyreactivity (PSR sort gate)” value is “high polyreactivity”.
On to “QVQLVESGGGLVQAGGSLRLSCAASGYIFIVNAMGSYRQAPGKERELVAAITDRGGSTYYADSVKGRFTISRDNAKNTVYLQMNSLKPEVTAVYYCAAELVHRLWYRDVHFDYWGQGTQVTVSS”, for which the “polyreactivity (PSR sort gate)” value is reported as “low polyreactivity”.
For the sequence “QVQLVESGGGLVQAGGSLRLSCAASGRTFSIYAMGLYRQAPGKERELVAAISNGGRTKYADSVKGRFTISRDNAKNTVYLQMNSLKPEDTAVYYCAAETWYVAYGYWGQGTQVTVSS”, the “polyreactivity (PSR sort gate)” value is on record as “high polyreactivity”.
With “QVQLVESGGGLVQAGGSLRLSCAASGSPFNYYAMGSYRQAPGKERELVAGINRGGSTNYADSVKGRFTISRDNAKNTVYLQMNSLKPEDTAVYYCAVRAYRWRSTLGLYYWGQGTQVTVSS”, the “polyreactivity (PSR sort gate)” value is on record as “high polyreactivity”.
In the case of “QVQLVESGGGLVQEGGSLRLSCAASGFIVNRYAMGWYRQAPGKERELVAAITGSGSRTYYADSVKGRFTISRDNAKNTVYLHMNSLKPEATAVYYCNTDRRPTADFGYWGQGTQVTVAS” it was “high polyreactivity”.
The value for “QVQLVESGGGLVQAGGSLRLSCAASGFTFLRYAMGWYRQAPGKERELVAAITGSGGSTYYADSVKGRFTISRDNAQNTVYLQMNSLKPEDTAVYYCSIVSKFTGDYGYWGQGTQVTVSS” was “high polyreactivity”; that for “QVQLVESRGGLVQSGGSLRLSCAASGSIFEIYHMGRYRQAPGNERELVASIRTSGGSTYYADSVKGRFTISRDNAKNTVYLQMNSLKPEDTAVYYCAAVGRSYYGHDYWGQGTQVTVSS” was “low polyreactivity”.
Take “QVHLVESGGGLVQAGGSLRLSCADSGRIILDYAMGWYRQAPGKERELVAAITWGGGSTNYADSVKGRFTNSRDNAKNTVYLQMNRLKPEDTAVYYCNADPHDQYDYWGKGTQVTVSS”: the “polyreactivity (PSR sort gate)” value is “low polyreactivity”.
With “QVQLVESGGGLVQAGGSLRLSCAASGSTFGYYAMGWYRQAPGKERELVAAISLGGGSTYYADSVKGRFTISRDNAKNTVYLQMNSLKPEDTEVYYCAARPYVRVKWKFNYWGQGTQVTVSS”, the “polyreactivity (PSR sort gate)” value is reported as “low polyreactivity”.
In the case of “QVQLVESGGGLVQAGGSLRLSCAASVRIYPYYDRGWYRQAPGKDRELVASTNYADSVKGRFTISRDNAKNTVYLQMNSLKPEDTAVYYCNKRIYGWGGSRYDYWGQGTQVTVSS” it was “low polyreactivity”.
Turning to “QVQLQESGGGLVQAGGSLRMSCAARGTIFWQWAMGWYCQAPGKERELVASISSGGTTYHADSVKGRFTISRDNAKNTVYLQMNSLKPEDTAVYYCNAPNWSVAYVYITQEMDYWGQGTQVTVSS”, the “polyreactivity (PSR sort gate)” value is recorded as “low polyreactivity”.
